# Measurements as given in patent publication US10919943B2, “Mutant proteins enabling agrochemical control of plant gene expression” (The Regents of the University of California, priority 2016, dated 2021).
# T1: PYR1 (Arabidopsis thaliana, UniProt O49686)
# T1 construct: expressed in transfected cells; host or cells: S. cerevisiae strain Y190
# T1 sequence (O49686 1-191): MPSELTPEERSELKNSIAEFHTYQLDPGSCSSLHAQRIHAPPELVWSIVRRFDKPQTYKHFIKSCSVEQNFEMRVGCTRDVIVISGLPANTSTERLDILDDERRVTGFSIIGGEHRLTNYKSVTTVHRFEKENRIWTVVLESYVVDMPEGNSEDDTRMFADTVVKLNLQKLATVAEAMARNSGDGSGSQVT
# Molecular target: T1, PYR1
# Test: Yeast two hybrid of pACT-HAB1 site saturation mutants with pBD-PYR1 on 10 μM ABA, β-galactosidase staining
# Type: cell-based
# Design: key: x: Mutations in HAB1 that disrupt HAB1 interaction with PYR1
# Conditions: S. cerevisiae Y190, 10 μM ABA; dead = lack of detectable staining in comparison to wild type control
# Excerpt: To systematically define mutations in HAB1 that disrupt its binding to PYR1, we used site saturation mutagenesis to create a collection all possible single amino acid substitutions in 20 residues lining the PYR1 binding interface, and then assayed the ability of each mutant to bind PYR1 using the yeast two hybrid assay described above. We targeted the following residues for mutagenesis: R199, 5200, E201, E203, H245, G246, G247, S322, E323, T324, K381, I383, Q384, W385, Q386, R389, F391, G392, V393, and Y404. To create the collection of mutations, mutagenic “NNK” site directed mutagenesis primers were synthesized for each of the 20 positions and the primers used in QuickChange site-directed mutagenesis reactions using a previously described pACT-HAB1 template (Park et al., 2009). We note that this clone uses a HAB1 cDNA lacking its three N-terminal amino acids. The reaction products were digested with DpnI, and transformed into competent Escherichia coli DH5α cells and plasmid DNA for 96 colonies per site was isolated using Bioneer AccuPrep® Plasmid Mini Extraction Kit (Alameda, Calif.) and sequenced to identify mutants. This process identified most of the 19 desired mutations per target site; the remaining mutations were constructed directly using specific mutagenic primers. To interrogate the effects of the mutations on PYR1-HAB1 interactions, the mutant clones were individually transformed into S. cerevisiae strain Y190 containing pBD-PYR1 (Park et al., 2009). Yeast transformants were selected for the presence of plasmids on selective SD (-Leu,-Trp) plates and then spotted onto SD (-Leu,-Trp) agar plates supplemented with 10 μM ABA. After incubating the test plates at 30° C. for two days, the colonies were lysed with chloroform and stained to reveal […] expression levels. “Dead” mutants were defined by lack of detectable staining in comparison to a wild type pBD-PYR1/pACT-HAB1 control. This screening effort defined 163 mutations that disrupt the ABA-induced PYR1/HAB1 interaction (Table 2).
row,Molecule,Mutations in HAB1 that disrupt HAB1 interaction with PYR1
1,"E323L: HAB1 mutant (protein, UniProt Q9CAJ0 23-511, looked up, variant E323L) Protein phosphatase 2C 16: SPVEITQLKNVTDAADLLSDSENQSFCNGGTECTMEDVSELEEVGEQDLLKTLSDTRSGSSNVFDEDDVLSVVEDNSAVISEGLLVVDAGSELSLSNTAMEIDNGRVLATAIIVGESSIEQVPTAEVLIAGVNQDTNTSEVVIRLPDENSNHLVKGRSVYELDCIPLWGTVSIQGNRSEMEDAFAVSPHFLKLPIKMLMGDHEGMSPSLTHLTGHFFGVYDGHGGHKVADYCRDRLHFALAEEIERIKDELCKRNTGEGRQVQWDKVFTSCFLTVDGEIEGKIGRAVVGSSDKVLEAVASLTVGSTAVVALVCSSHIVVSNCGDSRAVLFRGKEAMPLSVDHKPDREDEYARIENAGGKVIQWQGARVFGVLAMSRSIGDRYLKPYVIPEPEVTFMPRSREDECLILASDGLWDVMNNQEVCEIARRRILMWHKKNGAPPLAERGKGIDPACQAAADYLSMLALQKGSKDNISIIVIDLKAQRKFKTRT",x
2,"I383P: HAB1 mutant (protein, UniProt Q9CAJ0 23-511, looked up, variant I383P) Protein phosphatase 2C 16: SPVEITQLKNVTDAADLLSDSENQSFCNGGTECTMEDVSELEEVGEQDLLKTLSDTRSGSSNVFDEDDVLSVVEDNSAVISEGLLVVDAGSELSLSNTAMEIDNGRVLATAIIVGESSIEQVPTAEVLIAGVNQDTNTSEVVIRLPDENSNHLVKGRSVYELDCIPLWGTVSIQGNRSEMEDAFAVSPHFLKLPIKMLMGDHEGMSPSLTHLTGHFFGVYDGHGGHKVADYCRDRLHFALAEEIERIKDELCKRNTGEGRQVQWDKVFTSCFLTVDGEIEGKIGRAVVGSSDKVLEAVASETVGSTAVVALVCSSHIVVSNCGDSRAVLFRGKEAMPLSVDHKPDREDEYARIENAGGKVPQWQGARVFGVLAMSRSIGDRYLKPYVIPEPEVTFMPRSREDECLILASDGLWDVMNNQEVCEIARRRILMWHKKNGAPPLAERGKGIDPACQAAADYLSMLALQKGSKDNISIIVIDLKAQRKFKTRT",x
3,"I383N: HAB1 mutant (protein, UniProt Q9CAJ0 23-511, looked up, variant I383N) Protein phosphatase 2C 16: SPVEITQLKNVTDAADLLSDSENQSFCNGGTECTMEDVSELEEVGEQDLLKTLSDTRSGSSNVFDEDDVLSVVEDNSAVISEGLLVVDAGSELSLSNTAMEIDNGRVLATAIIVGESSIEQVPTAEVLIAGVNQDTNTSEVVIRLPDENSNHLVKGRSVYELDCIPLWGTVSIQGNRSEMEDAFAVSPHFLKLPIKMLMGDHEGMSPSLTHLTGHFFGVYDGHGGHKVADYCRDRLHFALAEEIERIKDELCKRNTGEGRQVQWDKVFTSCFLTVDGEIEGKIGRAVVGSSDKVLEAVASETVGSTAVVALVCSSHIVVSNCGDSRAVLFRGKEAMPLSVDHKPDREDEYARIENAGGKVNQWQGARVFGVLAMSRSIGDRYLKPYVIPEPEVTFMPRSREDECLILASDGLWDVMNNQEVCEIARRRILMWHKKNGAPPLAERGKGIDPACQAAADYLSMLALQKGSKDNISIIVIDLKAQRKFKTRT",x
4,"K381W: HAB1 mutant (protein, UniProt Q9CAJ0 23-511, looked up, variant K381W) Protein phosphatase 2C 16: SPVEITQLKNVTDAADLLSDSENQSFCNGGTECTMEDVSELEEVGEQDLLKTLSDTRSGSSNVFDEDDVLSVVEDNSAVISEGLLVVDAGSELSLSNTAMEIDNGRVLATAIIVGESSIEQVPTAEVLIAGVNQDTNTSEVVIRLPDENSNHLVKGRSVYELDCIPLWGTVSIQGNRSEMEDAFAVSPHFLKLPIKMLMGDHEGMSPSLTHLTGHFFGVYDGHGGHKVADYCRDRLHFALAEEIERIKDELCKRNTGEGRQVQWDKVFTSCFLTVDGEIEGKIGRAVVGSSDKVLEAVASETVGSTAVVALVCSSHIVVSNCGDSRAVLFRGKEAMPLSVDHKPDREDEYARIENAGGWVIQWQGARVFGVLAMSRSIGDRYLKPYVIPEPEVTFMPRSREDECLILASDGLWDVMNNQEVCEIARRRILMWHKKNGAPPLAERGKGIDPACQAAADYLSMLALQKGSKDNISIIVIDLKAQRKFKTRT",x

# Second part, the molecule after the results:
row,Mutations in HAB1 that disrupt HAB1 interaction with PYR1,Molecule
1,x,"I383R: HAB1 mutant (protein, UniProt Q9CAJ0 23-511, looked up, variant I383R) Protein phosphatase 2C 16: SPVEITQLKNVTDAADLLSDSENQSFCNGGTECTMEDVSELEEVGEQDLLKTLSDTRSGSSNVFDEDDVLSVVEDNSAVISEGLLVVDAGSELSLSNTAMEIDNGRVLATAIIVGESSIEQVPTAEVLIAGVNQDTNTSEVVIRLPDENSNHLVKGRSVYELDCIPLWGTVSIQGNRSEMEDAFAVSPHFLKLPIKMLMGDHEGMSPSLTHLTGHFFGVYDGHGGHKVADYCRDRLHFALAEEIERIKDELCKRNTGEGRQVQWDKVFTSCFLTVDGEIEGKIGRAVVGSSDKVLEAVASETVGSTAVVALVCSSHIVVSNCGDSRAVLFRGKEAMPLSVDHKPDREDEYARIENAGGKVRQWQGARVFGVLAMSRSIGDRYLKPYVIPEPEVTFMPRSREDECLILASDGLWDVMNNQEVCEIARRRILMWHKKNGAPPLAERGKGIDPACQAAADYLSMLALQKGSKDNISIIVIDLKAQRKFKTRT"
2,x,"I383T: HAB1 mutant (protein, UniProt Q9CAJ0 23-511, looked up, variant I383T) Protein phosphatase 2C 16: SPVEITQLKNVTDAADLLSDSENQSFCNGGTECTMEDVSELEEVGEQDLLKTLSDTRSGSSNVFDEDDVLSVVEDNSAVISEGLLVVDAGSELSLSNTAMEIDNGRVLATAIIVGESSIEQVPTAEVLIAGVNQDTNTSEVVIRLPDENSNHLVKGRSVYELDCIPLWGTVSIQGNRSEMEDAFAVSPHFLKLPIKMLMGDHEGMSPSLTHLTGHFFGVYDGHGGHKVADYCRDRLHFALAEEIERIKDELCKRNTGEGRQVQWDKVFTSCFLTVDGEIEGKIGRAVVGSSDKVLEAVASETVGSTAVVALVCSSHIVVSNCGDSRAVLFRGKEAMPLSVDHKPDREDEYARIENAGGKVTQWQGARVFGVLAMSRSIGDRYLKPYVIPEPEVTFMPRSREDECLILASDGLWDVMNNQEVCEIARRRILMWHKKNGAPPLAERGKGIDPACQAAADYLSMLALQKGSKDNISIIVIDLKAQRKFKTRT"
3,x,"I383S: HAB1 mutant (protein, UniProt Q9CAJ0 23-511, looked up, variant I383S) Protein phosphatase 2C 16: SPVEITQLKNVTDAADLLSDSENQSFCNGGTECTMEDVSELEEVGEQDLLKTLSDTRSGSSNVFDEDDVLSVVEDNSAVISEGLLVVDAGSELSLSNTAMEIDNGRVLATAIIVGESSIEQVPTAEVLIAGVNQDTNTSEVVIRLPDENSNHLVKGRSVYELDCIPLWGTVSIQGNRSEMEDAFAVSPHFLKLPIKMLMGDHEGMSPSLTHLTGHFFGVYDGHGGHKVADYCRDRLHFALAEEIERIKDELCKRNTGEGRQVQWDKVFTSCFLTVDGEIEGKIGRAVVGSSDKVLEAVASETVGSTAVVALVCSSHIVVSNCGDSRAVLFRGKEAMPLSVDHKPDREDEYARIENAGGKVSQWQGARVFGVLAMSRSIGDRYLKPYVIPEPEVTFMPRSREDECLILASDGLWDVMNNQEVCEIARRRILMWHKKNGAPPLAERGKGIDPACQAAADYLSMLALQKGSKDNISIIVIDLKAQRKFKTRT"
4,x,"I383Q: HAB1 mutant (protein, UniProt Q9CAJ0 23-511, looked up, variant I383Q) Protein phosphatase 2C 16: SPVEITQLKNVTDAADLLSDSENQSFCNGGTECTMEDVSELEEVGEQDLLKTLSDTRSGSSNVFDEDDVLSVVEDNSAVISEGLLVVDAGSELSLSNTAMEIDNGRVLATAIIVGESSIEQVPTAEVLIAGVNQDTNTSEVVIRLPDENSNHLVKGRSVYELDCIPLWGTVSIQGNRSEMEDAFAVSPHFLKLPIKMLMGDHEGMSPSLTHLTGHFFGVYDGHGGHKVADYCRDRLHFALAEEIERIKDELCKRNTGEGRQVQWDKVFTSCFLTVDGEIEGKIGRAVVGSSDKVLEAVASETVGSTAVVALVCSSHIVVSNCGDSRAVLFRGKEAMPLSVDHKPDREDEYARIENAGGKVQQWQGARVFGVLAMSRSIGDRYLKPYVIPEPEVTFMPRSREDECLILASDGLWDVMNNQEVCEIARRRILMWHKKNGAPPLAERGKGIDPACQAAADYLSMLALQKGSKDNISIIVIDLKAQRKFKTRT"
